Source: article PMC10684826
Where two headings read alike, the source gives them in different places.

Key:
Test in all cases: EMSA
EcoSSB = EcoSSB (Escherichia coli, UniProt P0AGE0 1-178)
AhoSSB [1] = molecular target: T1, AhoSSB (Acidianus hospitalis W1, UniProt F4B912 1-142)
T1 sequence: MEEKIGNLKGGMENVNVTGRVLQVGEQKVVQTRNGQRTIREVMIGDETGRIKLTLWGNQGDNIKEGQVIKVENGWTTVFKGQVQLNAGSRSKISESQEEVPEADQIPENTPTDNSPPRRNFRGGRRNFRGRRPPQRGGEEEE

SheSSB [2] = molecular target: T2, SheSSB (Staphylothermus hellenicus DSM 12710, UniProt D7D8N7 1-151)
T2 sequence: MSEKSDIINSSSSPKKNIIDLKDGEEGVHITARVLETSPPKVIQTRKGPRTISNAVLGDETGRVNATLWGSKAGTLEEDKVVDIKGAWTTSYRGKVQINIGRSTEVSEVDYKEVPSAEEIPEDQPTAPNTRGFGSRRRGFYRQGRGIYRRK

SacSSB [3] = molecular target: T3, SacSSB (Sulfolobus acidocaldarius DSM 639, UniProt Q4JA43 1-146)
T3 sequence: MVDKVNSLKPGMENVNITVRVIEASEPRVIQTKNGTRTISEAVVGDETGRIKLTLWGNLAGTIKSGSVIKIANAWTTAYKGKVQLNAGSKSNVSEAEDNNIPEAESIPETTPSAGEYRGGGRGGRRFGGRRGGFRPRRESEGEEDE

SisSSB deltaC29 = molecular target: T4, SisSSB deltaC29 (Saccharolobus islandicus REY15A, UniProt F0NBA9 1-119)
T4 sequence: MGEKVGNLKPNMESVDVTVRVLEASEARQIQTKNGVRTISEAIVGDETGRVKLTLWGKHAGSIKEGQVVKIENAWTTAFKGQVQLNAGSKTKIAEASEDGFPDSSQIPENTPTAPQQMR

SisSSB deltaC53 = molecular target: T5, SisSSB deltaC53 (Saccharolobus islandicus REY15A, UniProt F0NBA9 1-95)
T5 sequence: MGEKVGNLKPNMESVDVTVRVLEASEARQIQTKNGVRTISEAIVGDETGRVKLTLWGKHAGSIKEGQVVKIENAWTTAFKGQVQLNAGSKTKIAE

AhoSSB [4] = molecular target: T1, AhoSSB; remark: listed apart in the source
SheSSB [5] = molecular target: T2, SheSSB; remark: listed apart in the source
SacSSB [6] = molecular target: T3, SacSSB; remark: listed apart in the source

Measured: binding result

EcoSSB, sequence (P0AGE0 whole entry): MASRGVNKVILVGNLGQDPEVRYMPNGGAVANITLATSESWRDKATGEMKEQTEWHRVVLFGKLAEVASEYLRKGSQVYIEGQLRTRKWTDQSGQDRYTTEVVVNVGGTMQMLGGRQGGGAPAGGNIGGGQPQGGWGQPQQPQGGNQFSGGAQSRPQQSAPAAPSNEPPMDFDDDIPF

AGGGTTCTTTGTGGCGGCGTCATCTGTGCTTCCCTATCCA (ssDNA) [Fam-ssDNA 40 nt]
not listed: AhoSSB [4] | SheSSB [5] | SacSSB [6]
binds: all other assays above

AGGGUUCUUUGUGGCGGCGUCAUCUGUGCUUCCCUAUCCA (ssRNA) [Fam-ssRNA 40 nt]
binds: SisSSB deltaC29 | SisSSB deltaC53 | AhoSSB [4] | SheSSB [5] | SacSSB [6]
